Test results: PMC8410870, “Reconstitution defines the roles of p62, NBR1 and TAX1BP1 in ubiquitin condensate formation and autophagy initiation” (Nature Communications, 2021)

B1: 6xHis-Strep-TEV-GFP-NBR1 (natural protein, human, UniProt Q14596 1-966, looked up)
chain: MEPQVTLNVTFKNEIQSFLVSDPENTTWADIEAMVKVSFDLNTIQIKYLDEENEEVSINSQGEYEEALKMAVKQGNQLQMQVHEGHHVVDEAPPPVVGAKRLAARAGKKPLAHYSSLVRVLGSDMKTPEDPAVQSFPLVPCDTDQPQDKPPDWFTSYLETFREQVVNETVEKLEQKLHEKLVLQNPSLGSCPSEVSMPTSEETLFLPENQFSWHIACNNCQRRIVGVRYQCSLCPSYNICEDCEAGPYGHDTNHVLLKLRRPVVGSSEPFCHSKYSTPRLPAALEQVRLQKQVDKNFLKAEKQRLRAEKKQRKAEVKELKKQLKLHRKIHLWNSIHGLQSPKSPLGRPESLLQSNTLMLPLQPCTSVMPMLSAAFVDENLPDGTHLQPGTKFIKHWRMKNTGNVKWSADTKLKFMWGNLTLASTEKKDVLVPCLKAGHVGVVSVEFIAPALEGTYTSHWRLSHKGQQFGPRVWCSIIVDPFPSEESPDNIEKGMISSSKTDDLTCQQEETFLLAKEERQLGEVTEQTEGTAACIPQKAKNVASERELYIPSVDLLTAQDLLSFELLDINIVQELERVPHNTPVDVTPCMSPLPHDSPLIEKPGLGQIEEENEGAGFKALPDSMVSVKRKAENIASVEEAEEDLSGTQFVCETVIRSLTLDAAPDHNPPCRQKSLQMTFALPEGPLGNEKEEIIHIAEEEAVMEEEEDEEDEEEEDELKDEVQSQSSASSEDYIIILPECFDTSRPLGDSMYSSALSQPGLERGAEGKPGVEAGQEPAEAGERLPGGENQPQEHSISDILTTSQTLETVPLIPEVVELPPSLPRSSPCVHHHGSPGVDLPVTIPEVSSVPDQIRGEPRGSSGLVNSRQKSYDHSRHHHGSSIAGGLVKGALSVAASAYKALFAGPPVTAQPIISEDQTAALMAHLFEMGFCDRQLNLRLLKKHNYNILQVVTELLQLNNNDWYSQRY
notes: NBR1, human, ORF amplified from HeLa cells cDNA; called full-length NBR1 in the results; Tag ends are read from the construct's name; a TEV site lies between Strep and GFP, cleavage is not mentioned; also called GFP-NBR1 WT; full-length NBR1; source: Sf9, purified (HisTrap, SEC on Superose 6); not shown: GFP, N-terminal, kept
B2: GST-FIP200 Claw (aa 1494-1594) (domain or fragment, UniProt Q8TDY2 1494-1594, looked up)
chain: EKIAIRDFQVGDLVLIILDERHDNYVLFTVSPTLYFLHSESLPALDLKPGEGASGASRRPWVLGKVMEKEYCQAKKAQNRFKVPLGTKFYRVKAVSWNKKV
notes: FIP200 Claw domain, aa 1494-1594; The tag's end is read from the construct's name; also called Claw domain of FIP200; source: expressed and purified as the GST-FIP200 CTR construct (previously described); not shown: GST, N-terminal, kept

Experiments:
Assay in all cases: pull-down; microscopy-based protein-protein interaction assay: GST-tagged bait saturated on Glutathione Sepharose 4B beads, fluorescent prey at 2 µM, 25 mM HEPES pH 7.5, 150 mM NaCl, 1 mM DTT, 30 min-1 h at room temperature, beads imaged at the equilibrium by confocal microscopy
Conditions in all cases: both partners purified
[1] = target: T1, GST-FIP200 (UniProt Q8TDY2 1-1594)
T1 construct: FIP200, insect codon-optimized gene purchased from GenScript; The tag's end is read from the construct's name; In the functional rows on condensates the protein added was FIP200-GFP (GST cleaved off GST-FIP200-GFP with 3C protease); source: Sf9, purified (Glutathione Sepharose 4B, SEC on Superose 6 Increase); not shown: GST, N-terminal, kept

[2] = target: T2, GST fused to four M1-linked ubiquitin moieties (GST-4xUb) (UniProt P0CG48 1-76; P0CG48 1-76; P0CG48 1-76; P0CG48 1-76)
T2 construct: ubiquitin, first of four M1-linked (head-to-tail) moieties; ubiquitin, second of four M1-linked (head-to-tail) moieties; ubiquitin, third of four M1-linked (head-to-tail) moieties; ubiquitin, fourth of four M1-linked (head-to-tail) moieties; The tag's end is read from the construct's name; not shown: GST, N-terminal, kept
T2 sequence (P0CG48 1-304, one chain of several): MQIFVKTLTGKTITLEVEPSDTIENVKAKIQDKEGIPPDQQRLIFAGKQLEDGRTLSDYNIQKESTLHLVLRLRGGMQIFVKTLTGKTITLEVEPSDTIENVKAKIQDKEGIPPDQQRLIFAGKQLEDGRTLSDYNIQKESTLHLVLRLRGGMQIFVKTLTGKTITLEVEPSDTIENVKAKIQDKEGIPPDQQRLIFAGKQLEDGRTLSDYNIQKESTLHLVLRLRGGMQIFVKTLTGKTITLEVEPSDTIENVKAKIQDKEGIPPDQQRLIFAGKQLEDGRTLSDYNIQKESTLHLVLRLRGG

[3] = target: B1

| binding result [1] | binding result [2] | binding result [3] | Binder |
| --- | --- | --- | --- |
| binds | binds |  | B1 |
|  |  | binds | B2 |
